Laboratory results reported in the DeepSol protein solubility set.

Assay: soluble on expression in E. coli; label from the status in PepcDB or PDB records

Q: For “MSLATYETFAAVYDAVMDDTLYAKWTDFSLRHFPKGKKKLLELACGTGIQSVRFAQAGYAVTGLDLSGDMLKLAKKRATSAHQSIQFIEGNMLDLSNVGKYDLITCYSDSICYMQDEVEVGDVFIEVYKALEENGVFIFDVHSTYQTDKVFPGYSYHENADDFAMVWDTYEDDAPHSIVHELTFFVQEEDGRFTRHDEVHEERTYDILTYDILLEQAGFKDVKVYADFEDKKPTATSARWFFVAHKEGHHHHHH”, which “soluble on expression in E. coli” value is on record?
A: Its value is “soluble”.

Q: For “MAHHHHHHMKNFASWALRLHQDGISEERPQLGKQLYDKVCTVQTVKDYPGLRFKDMKEAIGFPIKRDDMFLPASMKEKRQQQQQIGVPPRRSQCFTCGQLGHYSNTCGVFKHKLNTRQKSDIQFKKQ”, which “soluble on expression in E. coli” value is on record?
A: Its value is “not soluble”.

Q: With “MGSDKIHHHHHHMAKKVAVLAVNPVNGCGLFQYLEAFFENGISYKVFAVSDTKEIKTNSGMVLIVDDVIANLKGHEDEFDALVFSCGDAVPVFQQYANQPYNVDLMEVIKTFGEKGKMMIGHCAGAMMFDFTGITKGKKVAVHPLAKPAIQNGIATDEKSEIDGNFFTAQDENTIWTMLPKVIEALK” as the sequence, how does the “soluble on expression in E. coli” value read?
A: Its value is “not soluble”.

Q: For “MGSDKIHHHHHHMRAHCRHSLWRKENMMESKIYPHEVSLETIDSMPDEYRDTLIHQLLANGEGELSAGDTYIDSFYPLAPDADERYICAQFAAEEVDHFRRFSRLLAELEVDTSHMLSQKKAERRYFAAESMTTDFRSWEERAAFSFLCELEGHYQIKEMVSSSYLPLRAEAEAVLKEEARHFSHGALLMRRAAKDGDARARAQDALDRLYPMAMDMFGRSDSHRSDAAVSWGLRQYTNGQLRDRYRDDVRGHIQRLGYEVPDETARRKYF”, which “soluble on expression in E. coli” value is on record?
A: The value was “not soluble”.

Q: With “MGAMESLRWMEARLPEILKDLEAFVRRESPSGDLEGLEAAARFLEEAFGPLEGRLSRKDTPAGPVLLLKREGEGAPVLLLCHYDTVHPKGSFPEPFRLEREKAIGPGVYDMKGGIIALLYALRYAEATGRRLPALEVLFTPDEEVGSPESRPLIEAAAKKARAVLVLEPPTAEGHLKVARKGVGLYRLRAIGKAAHQGVEPEKGVNAILELAHQVLKVAALEDREKGTTLGPNRIRGGTATNVVAEEAEVEIDLRAWTLEEVQRVEEGLKALKPVLPGARLVLSGGLNRPPMEPTEASLALFAKARAIGEALGLRLEPGRVGGGSDGNFTAALGVPTLDGLGLFGGNAHQKTEYVVVPEIPRRTALLAELLAAL” as the sequence, how does the “soluble on expression in E. coli” value read?
A: The value was “soluble”.

Q: For “MSRDRPNKIKLPHRPGYTTYLQTGDLTSTDGEEGVYSLKLITGYTREEPEILDDVLDPSGGSSSSQRSNDPLLPASTNHPEIFDDVLDPSGGSSSSQRSNDPLLPASTFKLSCVDCKKQYNVSKSMKSQARKRKIRQDMEAEDDMLDGTGLHRMALVNVNTTMPQEAKALEELSKKLVISATLTGYDSVPINTPSKSPQVLYFQVKTHAEFDLVQEKMDKNFISQLEIESLVKSNEPFLFPYGRRRHVFTSILLATYLSLCSDEANNIDDWKDLLRNNAIIKKAVEHSDTMQKMKKYLSVDGRTMLNFYKETL”, which “soluble on expression in E. coli” value is on record?
A: The value was “not soluble”.

Q: With “AGSMEDIPVEEAVLTGVATDNSEAKITVLGIPDSPGSASAVFRALADAEINIDTVLQNISSLEDNRTDITFTCPRADGPHAMELLRNLQAKNDWQNVLYDDQIGKVSLVGAGMKSHPGVTAEFCEALRDAGVNIELISTSEIRISVLIRESDVDVAARAIHEKFELGGETEAIVYAGTGR” as the sequence, how does the “soluble on expression in E. coli” value read?
A: Its value is “not soluble”.

Q: Which “soluble on expression in E. coli” value does the source give for “MALSANSDAVTYAKAANTRTAAETGDRIEWVKLSLAFLPLATPVSDAKVLTGRQKPLTEVAIIIAEIRSRDGFEGVGFSYSKRAGGQGIYAHAKEIADNLLGEDPNDIDKIYTKLLWAGASVGRSGMAVQAISPIDIALWDMKAKRAGLPLAKLLGAHRDSVQCYNTSGGFLHTPLDQVLKNVVISRENGIGGIKLAVGQPNCAEDIRRLTAVREALGDEFPLMVDANQQWDRETAIRMGRKMEQFNLIWIEEPLDAYDIEGHAQLAAALDTPIATGEMLTSFREHEQLILGNASDFVQPDAPRVGGISPFLKIMDLAAKHGRKLAPHFAMEVHLHLSAAYPLEPWLEHFEWLNPLFNEQLELRDGRMWISDRHGLGFTLSEQARRWTQLTCEFGKRP” here?
A: Its value is “soluble”.

Q: Which “soluble on expression in E. coli” value does the source give for “MGSDKIHHHHHHMMPYITDIAALEHVGVAAAWTEKVPAFRVLREKRMLDFRAPITVITGENGVGKSTLLEAIAINAGFDTAGGEHTGKFKPSDNPLQTVAKAHKGKEPMRGYFLRAETHFNVASGYRDEAPGWVNLHHMSHGESVMHIVQNAFVGKGLYLMDEPEAGLSFIRQMAILAELNFLAESGAQIIIVTHSPVLMAIPGAEIWEFSASGELHRGFDFEVTTAFRALRDFFEDPEEIAEYMMDVMMDNKGES” here?
A: Its value is “not soluble”.

Q: With “MSLTVPQSITELDLKNLTNRTFHPSPVAWEDQVLYFLLLDRFSDGKETGYRDNRGRRVAKGETPLYQPGDAGNAIRTEPEAAVWRESGSRWCGGTLKGLASKMGYLKRMGVTAVWVSPLFKQCSFVPTYHGYGIQNFLEVDPHFGTADDLRELVHVAHANGIYVILDIILNHAGNIFAYDRGYTPYDGSTVYPVTGFRSADGTPNLPFGPIDTKANPDAWPDGAVWPRELQAANAYTRMGHIRDWDSYHEYLDGDFFDLKDIHLGEGEVDAFRPSPALLALCEVYKYWIALSDVDGYRIDTVKHMGAGATRFFASVIHEFAQAIGKENFYLIGEITGGRDNAFNTLATTGLNAALGVDDIPLRLEDLVKGRANPADYFNLFRNSLLVRKESHVWFRDKVVTVIDDHDQVCRGAKKERFCAGDPKWRRLVLNALALNTTTLGIPCVYYGTEQAFDGEGGDDRYLRECMFGGPFGAFRTRGVQFFDEENPVYREFAKILALRREKLPLRRGRQYLREISGDGVTFGLPYVIGGEIRSVVPWSRIFDTEEMVLAINTDADSPRTAWVLVDGSLHREGDRFAYRYSTDPGQVRGTTAVQRINDAVQAIQVTVPAAGFVMLEQREGHHHHHH” as the sequence, how does the “soluble on expression in E. coli” value read?
A: Its value is “soluble”.

Q: Which “soluble on expression in E. coli” value does the source give for “MGSDKIHHHHHHMRDLNRLDDLLQGYEFMKKINDNWEIIENGLNLSDYEIEHLRKRITNLVIASGGNSSNEVVDLRVSKLQNKIFELAKDRLDSDLDSLADSLKNMMTRITSIELTNEQVLYMLNRLYGLDAGSIEVYVDSVSGDDTAGTGEKNKPFKTINKATMNFPRVFNSNTLRLWINPGRYDEDVIIPPLSGVTLYILSSNYETVDPAAGPTTCQIRSISVSDTSGYIYIAGIEQTNTAGTTKNYFIKAIRCGFVRITKCRMAFNTKAIDPFTAVFIDACSADVNGCYFASQNVDVRGYNTARVEVQNTTHGAKSAIGLYPQSADIFNLNSGTWEADTPTKLSGGGVVRT” here?
A: The value was “not soluble”.

Q: For “MEEELPLFSGDSGKPVQATLSSLKMLDVGKWPIFSLCSEEELQLIRQACVFGSAGNEVLYTTVNDEIFVLGTNCCGCLGLGDVQSTIEPRRLDSLNGKKIACLSYGSGPHIVLATTEGEVFTWGHNAYSQLGNGTTNHGLVPCHISTNLSNKQVIEVACGSYHSLVLTSDGEVFAWGYNNSGQVGSGSTVNQPIPRRVTGCLQNKVVVTIACGQMCCMAVVDTGEVYVWGYNGNGQLGLGNSGNQPTPCRVAALQGIRVQRVACGYAHTLVLTDEGQVYAWGANSYGQLGTGNKSNQSYPTPVTVEKDRIIEIAACHSTHTSAAKTQGGHVYMWGQCRGQSVILPHLTHFSCTDDVFACFATPAVTWRLLSVEPDDHLTVAESLKREFDNPDTADLKFLVDGKYIYAHKVLLKIRCEHFRSSLEDNEDDIVEMSEFSYPVYRAFLEYLYTDSISLSPEEAVGLLDLATFYRENRLKKLCQQTIKQGICEENAIALLSAAVKYDAQDLEEFCFRFCINHLTVVTQTSGFAEMDHDLLKNFISKASRVGAFKN”, which “soluble on expression in E. coli” value is on record?
A: Its value is “not soluble”.

Q: With “MSLAQEDLLAKGEYLTRAANCVACHTVPGGQPFAGGVEFKLPFGSLFSPNITPDPQTGIGAWTDDEFVSALQTGIGRDGKHYYPAFPYTSYSKMSRDDILAIKGYLDSLQPVEQAPRENHIGFPFNQRWGMVFWNLLFLNDEPFQADSQRSAEWNRGKYLVEGPGHCGECHSPRNLFQAVSSERSLAGNLIQGWNAYNISADPVHGIGAWPTDVLAGYLKDGAAPGLGLSSGPMAEVVENSLRHLTDADRQAIAVFLKDSPPRSEGVPRPQQVTLAEPGSGSALGNKLFAEACASCHRWDGTGNQSQTAMLLGLKTVNDPAASNLLGILLSGHGAADAPVNRRMPSFGNIYTDQELAALSSFMLQRFGESGAQVSVPAVAKRRTESLHEGHHHHHH” as the sequence, how does the “soluble on expression in E. coli” value read?
A: Its value is “not soluble”.

Q: Which “soluble on expression in E. coli” value does the source give for “MGSDKIHHHHHHMSGTHDTKQAIASALIELCEQKDFRKISVQDITKKVGLNRQTFYYHFTDKYDLLRWIYRHDALIYLETDICLENWEEQALKLLKAIKEKSHFYYTTVTSDSEVLLNVFSASTNRLFISLFEQVDVENHLTDKDKQFYANFFSYGCSGVLTKWILEEYPQTPLEMATQLFRLAKDTEFMAYHLYEQEANE” here?
A: The value was “not soluble”.

Q: For “MAHHHHHHMGTLEAQTQGPGSMKLLFVCLGNICRSPAAEAVMKKVIQNHHLTEKYICDSAGTCSYHEGQQADSRMRKVGKSRGYQVDSISRPVVSSDFKNFDYIFAMDNDNYYELLDRCPEQYKQKIFKMVDFCTTIKTTEVPDPYYGGEKGFHRVIDILEDACENLIIKLEEGKLIN”, which “soluble on expression in E. coli” value is on record?
A: Its value is “soluble”.

Q: For “GSHMASREQTMENILKAAKKKFGERGYEGTSIQEIAKEAKVNVAMASYYFNGKENLYYEVFKKYGLANELPNFLEKNQFNPINALREYLTVFTTHIKENPEIGTLAYEEIIKESARLEKIKPYFIGSFEQLKEILQEGEKQGVFHFFSINHTIHWITSIVLFPKFKKFIDGLVPRGSGGLVPRGSGDLVSRIISALTDKPNI”, which “soluble on expression in E. coli” value is on record?
A: Its value is “soluble”.

Q: For “MGSDKIHHHHHHMTNHQHPQTTTQWIDLIANSELPAITSTARMLDKFSNDDKSSLPKLSEAILHDQGLSSCLLKVANNIQHISINKVTTVSRASVVLGIQSVKNICLTAKLVSSLLASKSLDINVYEQLTQLMANSFYAGMLAKMMVPNYSEEIQEEVYLAAMLYRIGESAFWSAGGDVAKKLANYEAKSPQDFNQYCRKEMGTNFSELSKGLAGTWNLSDLLIKALDQPTTRTDEVKVIYFADKLSAIIAKPEGCEEDYHKLLKEIAYIVGISVRQLTVRIEHTREQAEKLLSSYGAEILTERINSLPTAEDFKSLGGDFDTREVVSKDKALLNGFMKLTKLIQNSKDFNEYLQLTLESLALTFAFDRSSFLMLVDDRARVKSRLVVNKNAQDDASKINIDIKHSDNVIARVISTDTAALINDHQEIRWRDLVTEEISEVIVEGAIAFVPVKIGGKAIGVICLQLLSPDQKIETQDFQQICAFIDHLNMCLTMIKYS”, which “soluble on expression in E. coli” value is on record?
A: The value was “not soluble”.

Q: Which “soluble on expression in E. coli” value does the source give for “MFKYSKDGVSVLTILDTRRAKINGLFPVKVQVVFRRKQKYYSTGKELSKEDWDRLLKAKSQLLMEVRTDIESSFSIIKQQVSELIQKGEFSFEILSIRLGRHTKEINLRTAFELKMKELEDNEQASTYLNYRSALKSLECFGGTNIPLDRITVEWLKHCERFWISNGKSYSSVSIYFRTLKCILNRAVRDGILKESSFPFGKNKYEIPEGHGRKLALTLPEIKRVMSFQDSTNELEEFRDLWFFSYLCNGINFMDLLFLQYSNIVDGEICFIRSKTSRTTKHSKEIRATITPEMWDIIHKWGNPNISPQTYIFKYAKGNEDAFEKIKLVRRIVTKCNRKLKKIAQGTGIAQLTTYTARHSFATVLKRGGAKTSYISESLGHSNLTVTENYLACFEKEERIRNARLLTNFDNKM” here?
A: Its value is “not soluble”.

Q: For “MYLHMAIAAPRILCPDMDSDTTKKWIFREPSRTDGDDVYALITECPPLDINSSYCNFLQATHFSKTCVLAEKDGDLAGFISGYQEPDEPNTLFIWQVAVSPRYRGKGLAFSMLTTLLERKNLLHIEFIETTITKANNASWSLFKKIDAQYGNQGQVTTFLDKESHFKGKHDTEYLYRIPLKSSQK”, which “soluble on expression in E. coli” value is on record?
A: Its value is “not soluble”.

Q: With “TPTVDHVLLNIALNLSSNRSHEQQYQNLIDGVAQVFPCDASCLFIFDEDGFLTPVAVKGLSSSVLGRRYFPKAHPRLDAIIHSREPVRFDADCSLPDPFDGTLLTEDQCIDVHDCMGFSLYVEGQLVGALTMDALTVGAFDDIDPVAIETFAALTAATLRNIAQLKALKAQNQKQKSVTQTLIQQARSQHG” as the sequence, how does the “soluble on expression in E. coli” value read?
A: Its value is “not soluble”.
